The record followed here is patent US9176064B2, “Bisubstrate fluorescent probes for protein kinase CK2” (University of Tartu, priority 2012, dated 2015).

Where a SMILES comes first, the peptide text is derived from it. [ ]: non-standard residue; d: D form. The star is where a group is joined. X1 = O=C(CCCCCCCn1cnc2c(Br)c(Br)c(Br)c(Br)c21)*

Holding throughout (experiment): Kinase panel residual activity
Common to all, as to format: biochemical
Holding throughout (conditions): compound at 1 micromolar

The target in one series is MSK1 (Homo sapiens, UniProt O75582).
The next series concerns the target IRR (Homo sapiens, UniProt P14616).
The next series addresses T1, MARK4 (Homo sapiens, UniProt Q96L34).
T1 sequence (Q96L34 1-752): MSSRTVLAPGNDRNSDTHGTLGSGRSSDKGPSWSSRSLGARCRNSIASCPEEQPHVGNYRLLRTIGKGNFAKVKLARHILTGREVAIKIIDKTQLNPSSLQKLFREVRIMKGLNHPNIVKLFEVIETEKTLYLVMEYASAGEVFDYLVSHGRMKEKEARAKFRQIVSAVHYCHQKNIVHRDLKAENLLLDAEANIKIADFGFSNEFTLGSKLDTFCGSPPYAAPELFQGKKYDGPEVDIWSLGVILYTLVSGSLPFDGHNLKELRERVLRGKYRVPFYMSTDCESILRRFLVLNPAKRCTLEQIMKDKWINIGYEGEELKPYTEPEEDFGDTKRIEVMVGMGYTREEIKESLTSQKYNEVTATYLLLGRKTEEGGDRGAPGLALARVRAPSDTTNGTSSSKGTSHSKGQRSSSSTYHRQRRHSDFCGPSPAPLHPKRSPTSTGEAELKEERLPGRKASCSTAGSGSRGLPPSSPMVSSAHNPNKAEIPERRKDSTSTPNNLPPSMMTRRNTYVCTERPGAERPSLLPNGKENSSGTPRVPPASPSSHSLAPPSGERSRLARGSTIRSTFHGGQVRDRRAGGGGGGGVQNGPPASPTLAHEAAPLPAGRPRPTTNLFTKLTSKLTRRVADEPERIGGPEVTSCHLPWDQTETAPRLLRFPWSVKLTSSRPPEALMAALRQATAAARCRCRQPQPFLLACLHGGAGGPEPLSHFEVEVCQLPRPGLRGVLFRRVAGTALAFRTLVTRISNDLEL

For the next series, the target named is T2, MST2 (Homo sapiens, UniProt Q13188).
T2 sequence (Q13188 1-491): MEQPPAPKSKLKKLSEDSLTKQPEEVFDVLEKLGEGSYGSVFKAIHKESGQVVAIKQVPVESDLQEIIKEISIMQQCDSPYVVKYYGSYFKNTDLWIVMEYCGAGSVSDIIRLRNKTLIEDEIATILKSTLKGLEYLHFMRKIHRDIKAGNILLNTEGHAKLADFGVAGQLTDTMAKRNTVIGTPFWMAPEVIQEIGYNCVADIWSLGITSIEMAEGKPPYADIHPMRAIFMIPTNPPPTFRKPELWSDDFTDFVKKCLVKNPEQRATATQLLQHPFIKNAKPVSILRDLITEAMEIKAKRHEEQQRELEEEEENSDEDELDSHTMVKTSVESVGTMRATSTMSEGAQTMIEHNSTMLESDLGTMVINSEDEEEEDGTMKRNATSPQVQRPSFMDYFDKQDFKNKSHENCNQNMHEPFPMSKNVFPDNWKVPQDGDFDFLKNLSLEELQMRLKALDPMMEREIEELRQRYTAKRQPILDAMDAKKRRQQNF

In another series the target is T3, ERK8 (Homo sapiens, UniProt Q8TD08).
T3 sequence (Q8TD08 1-544): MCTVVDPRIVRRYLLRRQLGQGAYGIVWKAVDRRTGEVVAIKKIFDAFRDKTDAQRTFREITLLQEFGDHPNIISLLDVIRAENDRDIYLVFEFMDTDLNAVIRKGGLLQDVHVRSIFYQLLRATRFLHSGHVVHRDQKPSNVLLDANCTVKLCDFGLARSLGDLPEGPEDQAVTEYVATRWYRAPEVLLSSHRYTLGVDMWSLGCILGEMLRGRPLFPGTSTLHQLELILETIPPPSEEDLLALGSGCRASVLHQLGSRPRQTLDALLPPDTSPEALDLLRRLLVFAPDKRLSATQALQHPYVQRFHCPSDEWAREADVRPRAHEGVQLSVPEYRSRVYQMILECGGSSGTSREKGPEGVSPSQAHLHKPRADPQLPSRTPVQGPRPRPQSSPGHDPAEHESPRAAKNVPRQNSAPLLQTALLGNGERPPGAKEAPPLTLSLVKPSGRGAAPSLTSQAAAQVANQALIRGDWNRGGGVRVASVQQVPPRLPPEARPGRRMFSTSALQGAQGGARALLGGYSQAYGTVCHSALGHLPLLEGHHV

Another series deals with T4, MAP4K3 (Homo sapiens, UniProt Q8IVH8).
T4 sequence (Q8IVH8 1-894): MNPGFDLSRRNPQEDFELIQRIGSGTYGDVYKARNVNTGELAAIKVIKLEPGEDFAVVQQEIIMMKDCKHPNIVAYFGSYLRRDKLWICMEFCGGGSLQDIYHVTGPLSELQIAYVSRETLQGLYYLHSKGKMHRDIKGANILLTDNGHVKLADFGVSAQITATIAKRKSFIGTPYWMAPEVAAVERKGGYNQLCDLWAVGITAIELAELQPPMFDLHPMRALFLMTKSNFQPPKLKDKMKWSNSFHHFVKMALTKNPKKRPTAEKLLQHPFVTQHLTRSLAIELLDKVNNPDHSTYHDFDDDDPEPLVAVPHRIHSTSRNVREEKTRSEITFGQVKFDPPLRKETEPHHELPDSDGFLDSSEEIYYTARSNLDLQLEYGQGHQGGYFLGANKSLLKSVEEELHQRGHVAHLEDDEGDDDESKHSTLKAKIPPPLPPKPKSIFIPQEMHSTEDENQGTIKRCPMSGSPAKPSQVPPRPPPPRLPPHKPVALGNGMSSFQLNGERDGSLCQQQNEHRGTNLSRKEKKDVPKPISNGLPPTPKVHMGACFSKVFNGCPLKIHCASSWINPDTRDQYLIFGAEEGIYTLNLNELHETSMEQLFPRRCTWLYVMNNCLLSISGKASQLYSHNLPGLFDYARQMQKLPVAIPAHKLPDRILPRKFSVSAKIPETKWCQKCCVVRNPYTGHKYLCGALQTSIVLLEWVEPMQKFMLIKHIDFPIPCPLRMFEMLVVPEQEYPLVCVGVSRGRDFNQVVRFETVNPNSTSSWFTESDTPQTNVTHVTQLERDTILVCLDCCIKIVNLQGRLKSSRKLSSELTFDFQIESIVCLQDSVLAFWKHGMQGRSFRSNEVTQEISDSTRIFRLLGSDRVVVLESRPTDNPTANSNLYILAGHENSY

Sequence of MSK1 (O75582 whole entry, species assumed): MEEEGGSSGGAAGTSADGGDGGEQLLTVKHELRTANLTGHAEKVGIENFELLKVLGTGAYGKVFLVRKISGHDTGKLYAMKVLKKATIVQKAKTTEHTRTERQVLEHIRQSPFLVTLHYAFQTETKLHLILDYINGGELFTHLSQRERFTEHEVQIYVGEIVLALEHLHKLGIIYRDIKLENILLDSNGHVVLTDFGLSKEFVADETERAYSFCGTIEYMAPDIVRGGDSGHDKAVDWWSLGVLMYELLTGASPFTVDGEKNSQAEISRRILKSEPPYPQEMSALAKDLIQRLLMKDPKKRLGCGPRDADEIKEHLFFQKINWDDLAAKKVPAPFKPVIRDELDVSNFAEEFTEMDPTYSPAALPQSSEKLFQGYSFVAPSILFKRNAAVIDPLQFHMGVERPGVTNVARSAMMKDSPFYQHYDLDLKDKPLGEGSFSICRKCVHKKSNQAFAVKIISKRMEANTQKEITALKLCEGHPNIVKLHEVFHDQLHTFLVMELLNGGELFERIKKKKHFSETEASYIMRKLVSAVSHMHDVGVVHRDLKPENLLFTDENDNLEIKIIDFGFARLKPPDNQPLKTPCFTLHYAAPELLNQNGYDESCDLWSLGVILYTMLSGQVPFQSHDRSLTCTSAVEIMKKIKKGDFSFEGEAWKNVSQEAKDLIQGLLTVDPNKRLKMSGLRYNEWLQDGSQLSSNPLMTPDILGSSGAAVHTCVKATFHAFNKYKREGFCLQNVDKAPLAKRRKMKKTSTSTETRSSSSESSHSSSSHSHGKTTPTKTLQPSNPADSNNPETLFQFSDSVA
Sequence of IRR (P14616 27-1297, species assumed): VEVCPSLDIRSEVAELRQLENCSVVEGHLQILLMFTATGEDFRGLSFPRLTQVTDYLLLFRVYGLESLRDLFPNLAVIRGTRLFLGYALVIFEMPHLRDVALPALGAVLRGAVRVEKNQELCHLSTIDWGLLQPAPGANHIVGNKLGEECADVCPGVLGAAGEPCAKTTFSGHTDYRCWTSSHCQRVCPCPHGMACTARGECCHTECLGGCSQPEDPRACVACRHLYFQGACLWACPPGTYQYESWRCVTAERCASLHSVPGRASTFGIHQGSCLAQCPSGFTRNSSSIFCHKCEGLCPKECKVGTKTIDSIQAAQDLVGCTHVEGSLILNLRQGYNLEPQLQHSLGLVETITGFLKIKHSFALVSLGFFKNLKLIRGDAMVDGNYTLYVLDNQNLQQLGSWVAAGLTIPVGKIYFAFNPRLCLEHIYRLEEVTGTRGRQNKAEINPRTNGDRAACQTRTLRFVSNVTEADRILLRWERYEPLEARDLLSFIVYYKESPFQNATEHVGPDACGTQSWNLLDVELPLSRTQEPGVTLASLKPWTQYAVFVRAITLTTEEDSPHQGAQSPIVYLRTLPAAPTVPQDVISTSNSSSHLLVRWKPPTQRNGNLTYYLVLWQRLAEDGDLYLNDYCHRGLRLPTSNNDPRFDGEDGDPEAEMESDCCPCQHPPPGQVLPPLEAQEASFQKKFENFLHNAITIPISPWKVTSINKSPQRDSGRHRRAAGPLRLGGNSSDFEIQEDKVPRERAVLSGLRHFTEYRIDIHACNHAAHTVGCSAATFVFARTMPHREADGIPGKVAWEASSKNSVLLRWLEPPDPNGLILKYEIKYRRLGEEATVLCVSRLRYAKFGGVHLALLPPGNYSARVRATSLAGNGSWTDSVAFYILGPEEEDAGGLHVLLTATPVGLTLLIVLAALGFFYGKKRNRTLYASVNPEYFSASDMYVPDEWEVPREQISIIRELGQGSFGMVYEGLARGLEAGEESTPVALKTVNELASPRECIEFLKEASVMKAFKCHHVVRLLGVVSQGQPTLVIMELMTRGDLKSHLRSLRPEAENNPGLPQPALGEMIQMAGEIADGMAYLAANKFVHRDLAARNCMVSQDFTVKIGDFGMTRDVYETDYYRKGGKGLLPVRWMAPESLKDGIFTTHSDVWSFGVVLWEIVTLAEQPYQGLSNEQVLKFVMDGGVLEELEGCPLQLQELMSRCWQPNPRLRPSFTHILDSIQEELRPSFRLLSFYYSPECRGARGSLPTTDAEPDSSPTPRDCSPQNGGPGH

On to `NCCCC[C@H](NC(=O)[C@H](CC(=O)O)NC(=O)[C@H](CC(=O)O)NC(=O)[C@H](CC(=O)O)NC(=O)[C@H](CC(=O)O)NC(=O)[C@H](CC(=O)O)NC(=O)[C@@H](CC(=O)O)NC(=O)CCCCCCCn1cnc2c(Br)c(Br)c(Br)c(Br)c21)C(=O)O` [TBBI-OcA-(D-Asp)-(L-Asp)5-(L-Lys)-OH] (X1-[dD]DDDDDK-OH), for which the remaining activity at 1 µM was 102% with MSK1; 55% with IRR; 75% with MARK4; 99% with MST2; 25% in the series with ERK8; 86% with MAP4K3.
